According to US20170355769A1 (AbbVie / Abbott, published 2017):
Where a chain is given by its changes, count along the chain named.

T1: Human full length B7-H3 (human, UniProt Q5ZPR3 29-534)
T1 sequence: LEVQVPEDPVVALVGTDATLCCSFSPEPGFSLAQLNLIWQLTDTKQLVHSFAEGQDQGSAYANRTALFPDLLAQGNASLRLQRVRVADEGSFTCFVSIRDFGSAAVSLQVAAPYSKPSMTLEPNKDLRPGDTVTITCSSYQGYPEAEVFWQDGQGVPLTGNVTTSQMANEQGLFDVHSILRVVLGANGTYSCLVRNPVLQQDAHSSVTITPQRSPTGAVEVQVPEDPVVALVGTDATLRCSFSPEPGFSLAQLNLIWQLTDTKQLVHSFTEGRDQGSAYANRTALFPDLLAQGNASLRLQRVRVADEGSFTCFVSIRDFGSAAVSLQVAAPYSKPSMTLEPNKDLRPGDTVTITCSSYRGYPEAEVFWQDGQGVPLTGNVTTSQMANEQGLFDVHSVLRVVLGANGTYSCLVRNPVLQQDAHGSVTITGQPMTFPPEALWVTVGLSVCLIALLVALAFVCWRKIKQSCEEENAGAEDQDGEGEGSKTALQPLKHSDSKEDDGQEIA

B1: huAb3v2.5-TX (antibody, human IgG1, kappa, L234A L235A, V domains shown)
VH: EVQLVQSGAEVKKPGSSVKVSCKASGYTFSSYWMHWVRQAPGQGLEWIGLIHPESGSTNYNEMFKNRATLTVDRSTSTAYMELSSLRSEDTAVYYCAGGGRLYFDYWGQGTTVTVSS
VL: DIVMTQSPLSLPVTPGEPASISCRSSQSLVHSNRDTYLRWYLQKPGQSPQLLIYKVSNRFSGVPDRFSGSGSGTDFTLKISRVEAEDVGVYYCSQSTHVPYTFGGGTKVEIKR
modifications: synthon TX on reduced interchain Cys
B2: huAb3v2.6-ZZ (antibody, human IgG1, kappa, L234A L235A, V domains shown)
VH: B1 VH
VL: B1 VL with R34Q
modifications: synthon ZZ on reduced interchain Cys
B3: huAb3v2.5-SE (antibody, human IgG1, kappa, L234A L235A, V domains shown)
VH: B1 VH
VL: B1 VL
modifications: synthon SE on reduced interchain Cys
B4: huAb3v2.5-YG (antibody, human IgG1, kappa, L234A L235A, V domains shown)
VH: B1 VH
VL: B1 VL
modifications: synthon YG on reduced interchain Cys
B5: huAb3v2.6-SR (antibody, human IgG1, kappa, L234A L235A, V domains shown)
VH: B1 VH
VL: B1 VL with R34Q
modifications: synthon SR on reduced interchain Cys
B6: huAb3v2.6-ZT (antibody, human IgG1, kappa, L234A L235A, V domains shown)
VH: B1 VH
VL: B1 VL with R34Q
modifications: synthon ZT on reduced interchain Cys
B7: huAb3v2.5-ZZ (antibody, human IgG1, kappa, L234A L235A, V domains shown)
VH: B1 VH
VL: B1 VL
modifications: synthon ZZ on reduced interchain Cys
B8: huAb3v2.6-TV (antibody, human IgG1, kappa, L234A L235A, V domains shown)
VH: B1 VH
VL: B1 VL with R34Q
modifications: synthon TV on reduced interchain Cys
B9: huAb3v2.5-KZ (antibody, human IgG1, kappa, L234A L235A, V domains shown)
VH: B1 VH
VL: B1 VL
modifications: synthon KZ on reduced interchain Cys
B10: huAb3v2.6-SE (antibody, human IgG1, kappa, L234A L235A, V domains shown)
VH: B1 VH
VL: B1 VL with R34Q
modifications: synthon SE on reduced interchain Cys
B11: huAb3v2.5-XW (antibody, human IgG1, kappa, L234A L235A, V domains shown)
VH: B1 VH
VL: B1 VL
modifications: synthon XW on reduced interchain Cys
B12: huAb3v2.5-TV (antibody, human IgG1, kappa, L234A L235A, V domains shown)
VH: B1 VH
VL: B1 VL
modifications: synthon TV on reduced interchain Cys
B13: huAb3v2.6-AAA (antibody, human IgG1, kappa, L234A L235A, V domains shown)
VH: B1 VH
VL: B1 VL with R34Q
modifications: synthon AAA on reduced interchain Cys
B14: huAb3v2.6-XW (antibody, human IgG1, kappa, L234A L235A, V domains shown)
VH: B1 VH
VL: B1 VL with R34Q
modifications: synthon XW on reduced interchain Cys
B15: huAb3v2.6-LB (antibody, human IgG1, kappa, L234A L235A, V domains shown)
VH: B1 VH
VL: B1 VL with R34Q
modifications: synthon LB on reduced interchain Cys
B16: huAb3v2.5-ZT (antibody, human IgG1, kappa, L234A L235A, V domains shown)
VH: B1 VH
VL: B1 VL
modifications: synthon ZT on reduced interchain Cys
B17: huAb3v2.6-YY (antibody, human IgG1, kappa, L234A L235A, V domains shown)
VH: B1 VH
VL: B1 VL with R34Q
modifications: synthon YY on reduced interchain Cys
B18: huAb3v2.5-SR (antibody, human IgG1, kappa, L234A L235A, V domains shown)
VH: B1 VH
VL: B1 VL
modifications: synthon SR on reduced interchain Cys
B19: huAb3v2.6-TX (antibody, human IgG1, kappa, L234A L235A, V domains shown)
VH: B1 VH
VL: B1 VL with R34Q
modifications: synthon TX on reduced interchain Cys
B20: huAb3v2.5-AAA (antibody, human IgG1, kappa, L234A L235A, V domains shown)
VH: B1 VH
VL: B1 VL
modifications: synthon AAA on reduced interchain Cys
B21: huAb3v2.5-LB (antibody, human IgG1, kappa, L234A L235A, V domains shown)
VH: B1 VH
VL: B1 VL
modifications: synthon LB on reduced interchain Cys
B22: huAb3v2.5-YY (antibody, human IgG1, kappa, L234A L235A, V domains shown)
VH: B1 VH
VL: B1 VL
modifications: synthon YY on reduced interchain Cys
B23: huAb3v2.5-AAD (antibody, human IgG1, kappa, L234A L235A, V domains shown)
VH: B1 VH
VL: B1 VL
modifications: synthon AAD on reduced interchain Cys
B24: huAb3v2.6-AAD (antibody, human IgG1, kappa, L234A L235A, V domains shown)
VH: B1 VH
VL: B1 VL with R34Q
modifications: synthon AAD on reduced interchain Cys
B25: huAb3v2.6-WD (antibody, human IgG1, kappa, L234A L235A, V domains shown)
VH: B1 VH
VL: B1 VL with R34Q
modifications: synthon WD on reduced interchain Cys
B26: huAb3v2.5-WD (antibody, human IgG1, kappa, L234A L235A, V domains shown)
VH: B1 VH
VL: B1 VL
modifications: synthon WD on reduced interchain Cys
B27: huAb13v1-XW (antibody, human IgG1, kappa, L234A L235A, V domains shown)
VH: EVQLQESGPGLVKPSETLSLTCAVTGYSITSGYSWHWIRQFPGNGLEWMGYIHSSGSTNYNPSLKSRISISRDTSKNQFFLKLSSVTAADTAVYYCAGYDDYFEYWGQGTTVTVSS
VL: DIQMTQSPSSLSASVGDRVTITCKASQNVGFNVAWYQQKPGKSPKALIYSASYRYSGVPSRFSGSGSGTDFTLTISSLQPEDFAEYFCQQYNWYPFTFGQGTKLEIKR
modifications: synthon XW on reduced interchain Cys
B28: huAb13v1-SE (antibody, human IgG1, kappa, L234A L235A, V domains shown)
VH: B27 VH
VL: B27 VL
modifications: synthon SE on reduced interchain Cys
B29: huAb13v1-TX (antibody, human IgG1, kappa, L234A L235A, V domains shown)
VH: B27 VH
VL: B27 VL
modifications: synthon TX on reduced interchain Cys
B30: huAb13v1-KZ (antibody, human IgG1, kappa, L234A L235A, V domains shown)
VH: B27 VH
VL: B27 VL
modifications: synthon KZ on reduced interchain Cys
B31: huAb13v1-TV (antibody, human IgG1, kappa, L234A L235A, V domains shown)
VH: B27 VH
VL: B27 VL
modifications: synthon TV on reduced interchain Cys
B32: huAb13v1-SR (antibody, human IgG1, kappa, L234A L235A, V domains shown)
VH: B27 VH
VL: B27 VL
modifications: synthon SR on reduced interchain Cys
B33: huAb13v1-YG (antibody, human IgG1, kappa, L234A L235A, V domains shown)
VH: B27 VH
VL: B27 VL
modifications: synthon YG on reduced interchain Cys
B34: huAb13v1-AAA (antibody, human IgG1, kappa, L234A L235A, V domains shown)
VH: B27 VH
VL: B27 VL
modifications: synthon AAA on reduced interchain Cys

What follows are binders tested against T1, Human full length B7-H3 (assay: cell-based or functional assay).
In the case of B1, the “EC50 nM H1650 (tumor cell cytotoxicity)” value is reported as 0.62 nM.
B2 was tested, and the “EC50 nM H1650 (tumor cell cytotoxicity)” value was 1.35 nM.
B3 was tested, and the “EC50 nM H1650 (tumor cell cytotoxicity)” value was 0.85 nM.
In the case of B4, the “EC50 nM H1650 (tumor cell cytotoxicity)” value is reported as 0.71 nM.
For B5, the “EC50 nM H1650 (tumor cell cytotoxicity)” value was 0.71 nM.
In the case of B6, the “EC50 nM H1650 (tumor cell cytotoxicity)” value is reported as 1.11 nM.
B7 was tested, and the “EC50 nM H1650 (tumor cell cytotoxicity)” value was 1.1 nM.
In the case of B8, the “EC50 nM H1650 (tumor cell cytotoxicity)” value is reported as 0.52 nM.
For B9, the “EC50 nM H1650 (tumor cell cytotoxicity)” value was 0.87 nM.
With B10 the “EC50 nM H1650 (tumor cell cytotoxicity)” value was 1.01 nM.
With B11 the “EC50 nM H1650 (tumor cell cytotoxicity)” value was 2.18 nM.
For B12, the “EC50 nM H1650 (tumor cell cytotoxicity)” value was 0.53 nM.
B13 was tested, and the “EC50 nM H1650 (tumor cell cytotoxicity)” value was 1.24 nM.
For B14, the “EC50 nM H1650 (tumor cell cytotoxicity)” value was 2.4 nM.
In the case of B15, the “EC50 nM H1650 (tumor cell cytotoxicity)” value is reported as 2.07 nM.
For B16, the “EC50 nM H1650 (tumor cell cytotoxicity)” value was 0.95 nM.
In the case of B17, the “EC50 nM H1650 (tumor cell cytotoxicity)” value is reported as 0.72 nM.
With B18 the “EC50 nM H1650 (tumor cell cytotoxicity)” value was 0.59 nM.
With B19 the “EC50 nM H1650 (tumor cell cytotoxicity)” value was 0.47 nM.
In the case of B20, the “EC50 nM H1650 (tumor cell cytotoxicity)” value is reported as 0.85 nM.
In the case of B21, the “EC50 nM H1650 (tumor cell cytotoxicity)” value is reported as 2.59 nM.
B22 was tested, and the “EC50 nM H1650 (tumor cell cytotoxicity)” value was 0.71 nM.
For B23, the “EC50 nM H1650 (tumor cell cytotoxicity)” value was 0.49 nM.
In the case of B24, the “EC50 nM H1650 (tumor cell cytotoxicity)” value is reported as 0.85 nM.
In the case of B25, the “EC50 nM H1650 (tumor cell cytotoxicity)” value is reported as 0.79 nM.
For B26, the “EC50 nM H1650 (tumor cell cytotoxicity)” value was 0.83 nM.
For B27, the “EC50 nM H1650 (tumor cell cytotoxicity)” value was 0.86 nM.
For B28, the “EC50 nM H1650 (tumor cell cytotoxicity)” value was 0.63 nM.
With B29 the “EC50 nM H1650 (tumor cell cytotoxicity)” value was 0.22 nM.
With B30 the “EC50 nM H1650 (tumor cell cytotoxicity)” value was 179 nM.
In the case of B31, the “EC50 nM H1650 (tumor cell cytotoxicity)” value is reported as 0.43 nM.
B32 was tested, and the “EC50 nM H1650 (tumor cell cytotoxicity)” value was 0.59 nM.
With B33 the “EC50 nM H1650 (tumor cell cytotoxicity)” value was 0.33 nM.
With B34 the “EC50 nM H1650 (tumor cell cytotoxicity)” value was 0.37 nM.
